Changes are numbered by the printed parent chain.
Legend:
[1] = target: T1, hCD40-His protein (Acro, Cat. No.: CD0-H5228) (human, UniProt P25942 21-193); assay: BLI (Fortebio Octet RED96e), antibody captured on AHC sensor, antigen 1.56-100 nM, 1:1 model
T1 construct: Bought protein; also called human CD40 antigen; not shown: His tag
Protocol: (§1) The affinity of humanized anti-CD40 antibodies to an hCD40-His protein (Acro, Cat. No.: CD0-H5228) and a CynoCD40-His protein (Acro, Cat. No.: CD0-C52H6) was detected by a ForteBio molecular interaction system. Firstly, an AHC biosensor (Fortebio, Cat. No.: 18-5060) was activated, and then immersed in an anti-CD40 antibody solution at a final concentration of 5 μg/mL to capture the antibodies. Serially 2-fold diluted hCD40-His protein and CynoCD40-His protein in a final concentration range of 1.56 nM-100 nM were then […] the AHC biosensor. The response signals were detected in real time on a Fortebio molecular interaction system (Fortebio Octet RED96e) to give association and dissociation curves. After the completion of dissociation in each cycle, the AHC biosensor was regenerated for the next capture; the procedure was repeated until the affinity of the different antibodies for CD40 was determined. The resulting data were analyzed by Fortebio Data Analysis 11.0 software using a 1:1 (Langmuir) binding model to determine the Kₐ (Kₒₙ) and Kd (Kdis) values, and the dissociation constant KD was calculated by KD=Kd/Kₐ. See www.fortebio.com for more detailed detection procedures and related information.

[2] = target: T2, human CD40 (hCD40), full length, on cells (human, UniProt P25942 21-277); assay: cell-based or functional assay
[3] = target: T2, human CD40 (hCD40), full length, on …; assay: cell-based or functional assay; remark: listed apart in the source
hCD40-mFc = target: T3, hCD40-mFc (human); assay: flow cytometry, blocking of hCD40-mFc (2 µg/mL) binding to CHO-K1-hCD40L cells
T3 construct: Prepared in-house in CHO cells; also called human CD40 recombinant protein containing a mouse antibody heavy chain Fc; Human CD40-mFc
Protocol: A CHO-K1-hCD40L cell suspension and a CHO-K1-CynoCD40L cell suspension at a cell concentration of 3×10⁵ cells/mL were separately added into a 96-well U-bottom plate at 100 μL/well. An hCD40-mFc protein at a final concentration of 2 μg/mL (prepared in-house, SEQ ID NO: 64) or a cynoCD40-mFc protein at a final concentration of 2 μg/mL (prepared in-house, SEQ ID NO: 65) was added correspondingly, before serially 2-fold diluted anti-CD40 antibodies in a final concentration range of 312.5 ng/ml-40000 ng/ml were added. The mixture was mixed well, and then incubated at 4° C. for 1 h. The cells were washed with PBS containing 2% of FBS, and then a PE-conjugated goat anti-mouse IgG (H+L) antibody (Abcam, Cat. No.: ab97041) diluted at a volume ratio of 1:500 was added, and the mixture was incubated at 4° C. for 0.5 h. The cells were washed with PBS containing 2% of […], and then resuspended in PBS containing 2% of FBS. The fluorescence signals were detected on a flow cytometer (Sartorius IQue3). The activity of anti-CD40 antibodies to block the binding of CHO-K1-hCD40L cells to an hCD40-mFc protein and CHO-K1-cynoCD40L cells to a cynoCD40-mFc protein was analyzed by the mean fluorescence intensity (MFI) of staining, and the IC₅₀ value was calculated by GraphPad Prism software.

[4] = target: T2, human CD40 (hCD40), full length, on …; assay: flow cytometry (MFI) on 293T-hCD40-NFκB cells, PE anti-human IgG detection
[5] = target: T4, CynoCD40-His protein (Acro, Cat. No.: CD0-C52H6) (cynomolgus monkey, UniProt P25942 21-193 (human entry)); assay: BLI (Fortebio Octet RED96e), antibody captured on AHC sensor, antigen 1.56-100 nM, 1:1 model
T4 construct: Bought protein; also called cynomolgus monkey CD40 antigen; not shown: His tag
T4 chain: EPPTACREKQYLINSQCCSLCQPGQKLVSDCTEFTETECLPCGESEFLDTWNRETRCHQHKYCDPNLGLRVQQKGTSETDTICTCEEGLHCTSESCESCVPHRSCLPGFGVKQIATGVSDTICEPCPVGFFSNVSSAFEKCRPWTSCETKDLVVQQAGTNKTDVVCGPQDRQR
Protocol: as §1

[6] = target: T2, human CD40 (hCD40), full length, on …; assay: cell-based or functional assay; remark: listed apart in the source

B1: hzA01-1.2 (antibody, human IgG4 S228P, kappa, V domains shown)
VH: QVQLVESGGGVVQPGRSLRLSCAASGFSLPTSGVHWVRQAPGKGLEWVAVIWAGGDTNYADSVKGRFTISRDNSKNTVYLQMNSLRAEDTAVYYCLGHGHFDVWGQGTLVTVSS
VL: DIQMTQSPSSLSASVGDRVTITCRSSQSLVHSSGNTYLQWYQQKPGKAPGLLIYKVSNRFSGVPSRFSGSGSGTDFTLTISSLQPEDFATYYCSQTTHVPWTFGQGTKVEIKR
notes: Humanized A01; also called hzA01L1 + hzA01H2
Kd [1]: 59.9 nM | koff [1]: 0.0484 s⁻¹ | kon [1]: 808000 M⁻¹ s⁻¹

B2: hzA01-2.2 (antibody, human IgG4 S228P, kappa, V domains shown)
VH: B1 VH
VL: EIVLTQSPGTLSLSPGERATLSCRSSQSLVHSSGNTYLQWYQQKPGQAPRLLIYKVSNRFSGIPDRFSGSGSGTDFTLTISRLEPEDFAVYYCSQTTHVPWTFGQGTKVEIKR
notes: Humanized A01; also called hzA01L2 + hzA01H2
Kd [1]: 113 nM | koff [1]: 0.101 s⁻¹ | kon [1]: 893000 M⁻¹ s⁻¹

B3: CP-870893 (antibody, human IgG2, kappa, V domains shown)
VH: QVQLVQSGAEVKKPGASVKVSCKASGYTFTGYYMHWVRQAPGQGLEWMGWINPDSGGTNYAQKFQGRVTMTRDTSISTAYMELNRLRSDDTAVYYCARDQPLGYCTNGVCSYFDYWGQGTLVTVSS
VL: DIQMTQSPSSVSASVGDRVTITCRASQGIYSWLAWYQQKPGKAPNLLIYTASTLQSGVPSRFSGSGSGTDFTLTISSLQPEDFATYYCQQANIFPLTFGGGTKVEIKR
MFI value (CD95 on Ramos cells), Fc crosslinking with anti-human IgG Fcγ antibody, 1 µg/mL antibody [2]: 136000 MFI | MFI value (CD95 on Ramos cells), Fc crosslinking with anti-human IgG Fcγ antibody, 10 µg/mL antibody [2]: 135000 MFI

B4: hzA01-3.3 (antibody, human IgG4 S228P, kappa, V domains shown)
VH: QVQLKESGPGLVKPSETLSLTCTVSGFSLPTSGVHWIRQPPGKGLEWIGVIWAGGDTNYNSALKSRVTISKDNSKSQVFLKLSSVTAADTAVYYCLGHGHFDVWGQGTLVTVSS
VL: DVVMTQSPLSLPVTLGQPASISCRSSQSLVHSSGNTYLQWYLQRPGQSPGLLIYKVSNRFSGVPDRFSGSGSGTDFTLKISRVEAEDVGVYYCSQTTHVPWTFGQGTKLEIKR
notes: Humanized A01; also called hzA01L3 + hzA01H3
MFI value (CD95 on Ramos cells), Fc crosslinking with anti-human IgG Fcγ antibody, 1 µg/mL antibody [2]: 14100 MFI | MFI value (CD95 on Ramos cells), Fc crosslinking with anti-human IgG Fcγ antibody, 10 µg/mL antibody [2]: 12300 MFI | IC50 (read off the curve); NF-κB luciferase reporter (RLU), 293T-hCD40-NFκB cells co-cultured 1:1 with CHO-K1-hCD40L cells [3]: ~2 ng/mL | IC50 (hCD40-mFc): 38.4 nM | EC50 (read off the curve) [4]: ~3 ng/mL | Kd [1]: 0.255 nM | koff [1]: 0.000414 s⁻¹ | kon [1]: 1.63e+06 M⁻¹ s⁻¹ | Kd [5]: 0.243 nM | koff [5]: 0.000484 s⁻¹ | kon [5]: 1.99e+06 M⁻¹ s⁻¹

B5: hzA01-2.1 (antibody, human IgG4 S228P, kappa, V domains shown)
VH: B4 VH with K5Q, S61P, A62S, S76N
VL: B2 VL
notes: Humanized A01; also called hzA01L2 + hzA01H1
IC50 (read off the curve); NF-κB luciferase reporter (RLU), 293T-hCD40-NFκB cells co-cultured 1:1 with CHO-K1-hCD40L cells [3]: ~0.6 ng/mL | Kd [1]: 1.76 nM | koff [1]: 0.00255 s⁻¹ | kon [1]: 1.45e+06 M⁻¹ s⁻¹ | Kd [5]: 1.5 nM | koff [5]: 0.00282 s⁻¹ | kon [5]: 1.88e+06 M⁻¹ s⁻¹

B6: hzA01-1.1 (antibody, human IgG4 S228P, kappa, V domains shown)
VH: B4 VH with K5Q, S61P, A62S, S76N
VL: B1 VL
notes: Humanized A01; also called hzA01L1 + hzA01H1
IC50 (read off the curve); NF-κB luciferase reporter (RLU), 293T-hCD40-NFκB cells co-cultured 1:1 with CHO-K1-hCD40L cells [3]: ~0.3 ng/mL | Kd [1]: 0.808 nM | koff [1]: 0.00101 s⁻¹ | kon [1]: 1.25e+06 M⁻¹ s⁻¹ | Kd [5]: 0.576 nM | koff [5]: 0.000923 s⁻¹ | kon [5]: 1.6e+06 M⁻¹ s⁻¹

B7: hzA01-3.1 (antibody, human IgG4 S228P, kappa, V domains shown)
VH: B4 VH with K5Q, S61P, A62S, S76N
VL: B4 VL
notes: Humanized A01; also called hzA01L3 + hzA01H1
IC50 (read off the curve); NF-κB luciferase reporter (RLU), 293T-hCD40-NFκB cells co-cultured 1:1 with CHO-K1-hCD40L cells [3]: ~0.6 ng/mL | IC50 (hCD40-mFc): 22.8 nM | EC50 (read off the curve) [4]: ~2 ng/mL | Kd [1]: 0.366 nM | koff [1]: 0.000601 s⁻¹ | kon [1]: 1.64e+06 M⁻¹ s⁻¹ | Kd [5]: 0.365 nM | koff [5]: 0.000686 s⁻¹ | kon [5]: 1.88e+06 M⁻¹ s⁻¹

B8: hzA01-3.4 (antibody, human IgG4 S228P, kappa, V domains shown)
VH: B4 VH with K64M, L82M
VL: B4 VL
notes: Humanized A01; also called hzA01L3 + hzA01H4
IC50 (read off the curve); NF-κB luciferase reporter (RLU), 293T-hCD40-NFκB cells co-cultured 1:1 with CHO-K1-hCD40L cells [3]: ~0.6 ng/mL | IC50 (hCD40-mFc): 19.8 nM | EC50 (read off the curve) [4]: ~2 ng/mL | Kd [1]: 0.264 nM | koff [1]: 0.000454 s⁻¹ | kon [1]: 1.72e+06 M⁻¹ s⁻¹ | Kd [5]: 0.262 nM | koff [5]: 0.000532 s⁻¹ | kon [5]: 2.03e+06 M⁻¹ s⁻¹

B9: Chi-B01 (antibody, human IgG4 S228P, kappa, V domains shown)
VH: QIQLVQSGPELKKPGETVKISCKASGYTFTNYGMNWVKQAPGKGLKWMGWINPYTGEPTYADDFKGRFAFSVETSASTAYLQINNLKNEDTATYFCARKPPFDYWGQGTTLTVSS
VL: DIVMTQAAPSVPVTPGESVSISCRSSKSLLHSNGNTYLYWFLQRPGQSPQILIYRVSNLASGVPDRFSGSGSGTAFTLRISRVEAEDVGVYYCMQHVEYPFTFGSGTKLEIKR
notes: also called chimeric B01
IC50, inhibition of Ramos cell apoptosis induced by CD40L and IL-4 [6]: 0.0301 nM | Inhibition, % of Ramos cell apoptosis at 0.0128 ng/mL [6]: -24% | Inhibition, % of Ramos cell apoptosis at 0.064 ng/mL [6]: -33% | Inhibition, % of Ramos cell apoptosis at 0.32 ng/mL [6]: -12% | Inhibition, % of Ramos cell apoptosis at 1.6 ng/mL [6]: 2% | Inhibition, % of Ramos cell apoptosis at 8 ng/mL [6]: 55% | Inhibition, % of Ramos cell apoptosis at 40 ng/mL [6]: 93% | Inhibition, % of Ramos cell apoptosis at 200 ng/mL [6]: 96% | Inhibition, % of Ramos cell apoptosis at 1000 ng/mL [6]: 93% | Kd [1]: 7.66 nM | koff [1]: 0.00246 s⁻¹ | kon [1]: 321000 M⁻¹ s⁻¹

B10: Chi-B02 (antibody, human IgG4 S228P, kappa, V domains shown)
VH: EVQLQQSGPELVKPGASVKMSCKASGYTFTSYVMYWVKQKPGQGLEWIGYVNPYNDGTNYNEKFKGKATLTSDKSSSTAYMELSSLTSEDSAVYYCARGAMDYWGQGTSVTVSS
VL: B9 VL with N33Q
IC50, inhibition of Ramos cell apoptosis induced by CD40L and IL-4 [6]: 0.0275 nM | Inhibition, % of Ramos cell apoptosis at 0.0128 ng/mL [6]: -18% | Inhibition, % of Ramos cell apoptosis at 0.064 ng/mL [6]: -16% | Inhibition, % of Ramos cell apoptosis at 0.32 ng/mL [6]: -5% | Inhibition, % of Ramos cell apoptosis at 1.6 ng/mL [6]: 5% | Inhibition, % of Ramos cell apoptosis at 8 ng/mL [6]: 59% | Inhibition, % of Ramos cell apoptosis at 40 ng/mL [6]: 92% | Inhibition, % of Ramos cell apoptosis at 200 ng/mL [6]: 88% | Inhibition, % of Ramos cell apoptosis at 1000 ng/mL [6]: 75%

B11: Chi-B03 (antibody, human IgG4 S228P, kappa, V domains shown)
VH: EVKLVESGGGLVQPGGSLRLSCATSGFTFSDFYMEWVRQPPGKRLEWIAASRDKANDYTTEYSPSVQGRFIVSRDSSQSILYLQMNALRTEDTAIYYCARDVGRSYALDYWGQGTSVTVSS
VL: QVVLTQSPAIMSASPGEKVTMTCSASSSVTYMHWYQQKSGTSPKRWIYVTSKLASGVPTRFSGSGSGTSYSLTISSMEAEDAATYYCQQWSRKPPTFGAGTKLELKR
IC50, inhibition of Ramos cell apoptosis induced by CD40L and IL-4 [6]: 0.0119 nM | Inhibition, % of Ramos cell apoptosis at 0.0128 ng/mL [6]: -10% | Inhibition, % of Ramos cell apoptosis at 0.064 ng/mL [6]: -8% | Inhibition, % of Ramos cell apoptosis at 0.32 ng/mL [6]: 16% | Inhibition, % of Ramos cell apoptosis at 1.6 ng/mL [6]: 31% | Inhibition, % of Ramos cell apoptosis at 8 ng/mL [6]: 90% | Inhibition, % of Ramos cell apoptosis at 40 ng/mL [6]: 90% | Inhibition, % of Ramos cell apoptosis at 200 ng/mL [6]: 84% | Inhibition, % of Ramos cell apoptosis at 1000 ng/mL [6]: 70%
